Results on three molecules are retold here after patent US9957295B2, “Peptides inhibiting cold-inducible RNA binding protein activity” (The Feinstein Institute for Medical Research, priority 2013, dated 2018).

One assay addresses TLR4/MD2 complex (Homo sapiens, UniProt O00206+Q9Y6Y9). To be noted: SPR, literature; read-out: KD, binding to TLR4/MD2 complex; cited from earlier work.
The target in the next assay is T1, MD2 (Homo sapiens, UniProt Q9Y6Y9).
T1 sequence (Q9Y6Y9 19-160): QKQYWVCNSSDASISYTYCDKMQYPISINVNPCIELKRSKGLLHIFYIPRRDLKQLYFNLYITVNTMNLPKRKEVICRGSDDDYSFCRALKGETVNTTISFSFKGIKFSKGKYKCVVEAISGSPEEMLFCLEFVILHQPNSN
To be noted: literature; read-out: KD, binding to MD2; cited from earlier work.

For the next assay, the target named is TLR4 (Homo sapiens, UniProt O00206). Conditions: literature; cited from earlier work.
The subject of assay [1] is LPS-induced TNF-α release, RAW 264.7 cells. Briefly: Polymyxin B on LPS-induced TNF-α release from RAW 264.7 cells. The assay is classed as cell-based, murine. To be noted: PMB 120 U/ml, LPS 10 ng/ml, 8 hours. As to the method:
(§1) Murine macrophage-like RAW 264.7 cells were obtained from ATCC (American Type Culture Collection, Manassas, Va.), and were grown in Dulbecco's Modified Eagle's Medium (DMEM, Life Technologies, Grand Island, N.Y.) containing 10% (vol/vol) FBS (heat-inactivated at 56° C. for 30 min), 100 U/ml penicillin, 100 μg/ml streptomycin and 2 mM glutamine. Cells were re-suspended in medium and incubated in 6 or 48-well tissue-culture plates overnight in a humidified incubator (37° C., 5% CO2). In the experiments, cell monolayers were stimulated with or without recombinant CIRP at various indicated concentrations and for various indicated times. The cell-free supernatants were assayed for TNF-α by ELISA or for HMGB1 by western blot analysis.
(§2) To conduct this experiment, rmCIRP (1.5 μg/ml or LPS (10 ng/ml) was treated with polymyxin B (PMB, 120 U/ml) or heated at 80° C. for 30 min before being added to RAW 264.7 cells for 8 hours. *P<0.05 vs. rmCIRP; #P<0.05 vs. LPS.

Assay [2] concerns rmCIRP-induced TNF-α production, RAW 264.7 cells. The experiment in a line: Polymyxin B on rmCIRP-induced TNF-α production in RAW 264.7 cells. The assay is classed as cell-based, murine. Conditions: PMB 120 U/ml, rmCIRP 1.5 μg/ml, 8 hours. As to the method: as §1, §2
The next assay concerns the target T2, rhMD2 (Homo sapiens, UniProt Q9Y6Y9).
T2 construct: Glu17-Asn160); 10-His (C); purchased R&D Systems; host or cells: E. coli
T2 sequence (Q9Y6Y9 17-160): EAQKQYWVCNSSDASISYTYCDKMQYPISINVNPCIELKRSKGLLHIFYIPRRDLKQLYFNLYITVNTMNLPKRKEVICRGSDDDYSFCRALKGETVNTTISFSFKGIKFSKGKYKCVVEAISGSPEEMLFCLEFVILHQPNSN
The experiment in a line: SPR binding to immobilized rhMD2. Conditions: kinetic analysis, 25° C., read-out: apparent KD, binding to rhMD2. As to the method: (§3) Analysis of protein-protein and peptide-protein interactions were conducted using the BIAcore T200 instrument (GE Healthcare). Binding reactions were performed in 1×PBS buffer containing 0.01% Tween-20 (pH 7.4). The CM5 dextran chip (flow cell-2) was first activated by injection with 89 μl of 0.1 M […] and 0.1 M N-hydroxysuccinimide. An aliquot of 200 μl of 5 μg/ml of the ligand diluted in 10 mM sodium acetate (pH 4.5) was injected into flow cell-2 of the CM5 chip for immobilization. Next, 135 μl of 1 M ethanolamine (pH 8.2) was then injected to block the remaining active sites. The flow cell-1 without coating with the ligand was used as a control to evaluate nonspecific binding. The binding analyses were performed at flow rate of 30 μl/min at 25° C. To evaluate the binding, the analyte (ranging from 62.5 nM to 1.0 μM for kinetics analysis or 0.5 μM for yes/no binding analysis) was injected into flow cell-1 and -2 and the association of analyte and ligand was recorded respectively by surface plasmon resonance. The signal from the blank channel (flow cell-1) was subtracted from the channel (flow-cell 2) coated with the ligand. Data were analyzed by the BIAcore T200 Evaluation Software. For all samples, a blank injection with buffer alone was subtracted from the resulting reaction surface data. Data were globally fitted to the Lagmuir model for a 1:1 binding.
Surface plasmon resonance (SPR) analysis was utilized to determine the physical interaction and binding affinity between rhCIRP and pattern-recognition receptors and MD2. […] The sensorgrams show association and dissociation of analyte at the indicated concentration passed over to the immobilized ligand on the sensor chip, indicated as analyte/ligand on top of each diagram. […] The region of CIRP that binds to MD2 was determined via the synthesis of 32 oligopeptides (15-mer) covering the entire human CIRP sequence. The oligopeptides were passed over immobilized rhMD2 on the BIAcore instrument, followed by subsequent performance of a series of SPR analyses. Three oligopeptides with high binding affinity were indicated. […] Three oligopeptides, aa 101-115, 106-120 (C22), and 111-125 (C23) bound to rhMD2 with high affinity (FIG. 14 and FIG. 19).
Background: SPR reads the build-up and loss of mass on a sensor chip optically.

The target in another assay is T3, RAGE (Homo sapiens, UniProt Q15109).
T3 construct: Ala23-Ala344); 6-His (C); purchased Biovision; host or cells: human HEK293 cells
Briefly: SPR binding to RAGE. The protocol:
as §3, with “The binding analyses were performed at flow rate of 30 μl/min at 25° C.” left out, “The signal from the blank channel (flow cell-1) was subtracted from the channel (flow-cell 2) coated with the ligand.” left out, “For all samples, a blank injection with buffer alone was subtracted from the resulting reaction surface data. Data were globally fitted to the Lagmuir model for a 1:1 binding.” left out
(§4) Surface plasmon resonance (SPR) analysis was utilized to determine the physical interaction and binding affinity between rhCIRP and pattern-recognition receptors and MD2. […] The region of CIRP that binds to MD2 was determined via the synthesis of 32 oligopeptides (15-mer) covering the entire human CIRP sequence. […]

The target of a further assay is T4, TLR2 (Homo sapiens, UniProt O60603).
T4 construct: Glu21-Leu590); 10-His (C); purchased R&D Systems; host or cells: mouse myeloma NS0 cell line
The experiment in a line: SPR binding to TLR2. The protocol:
as §3, with “The binding analyses were performed at flow rate of 30 μl/min at 25° C.” left out, “The signal from the blank channel (flow cell-1) was subtracted from the channel (flow-cell 2) coated with the ligand.” left out, “For all samples, a blank injection with buffer alone was subtracted from the resulting reaction surface data. Data were globally fitted to the Lagmuir model for a 1:1 binding.” left out
as §4

For another assay, the system named is THP-1 cells. Briefly: TNF-α release from differentiated THP-1 cells stimulated with recombinant proteins. Conditions: 4 h. The class given is cell-based, human. The protocol:
As with the murine model, the stimulation of TNF-α, release by rCIRP in a human model was studied. […] These experiments were conducted by incubating differentiated human THP-1 cells with rhCIRP or rmCIRP at the indicated concentrations for 4 h. *P<0.05 vs. no CIRP. Similarly, human PBMC were incubated with the indicated concentrations of rhCIRP for 8 h. *P<0.05 vs. no rhCIRP. Thus, stimulation of cytokine release by CIRP was not attributable to LPS contamination. Furthermore, CIRP-induced cytokine activation was conserved between rodents and humans.
rmCIRP induced TNF-α and HMGB1 release in macrophages (FIGS. 10a, b and c). It was reported that HMGB1 can also stimulate TNF-α release (Andersson, U., et al. High mobility group 1 protein (HMG-1) stimulates proinflammatory cytokine synthesis in human monocytes. J. Exp. Med. 192, 565-570 (2000)). The relationship between CIRP and HMGB1 on stimulating TNF-α release was analyzed by applying respective neutralizing antibodies. […] After 4 h, TNF-α levels in conditioned medium (CM) were assayed by ELISA. Data are mean±s.e.m. from three independent experiments. *P<0.05 vs. rmCIRP+ control IgG. In FIG. 16D, RAW 264.7 cells were pre-incubated with rabbit control IgG or anti-CIRP antibodies at indicated dilutions of 1 mg/ml for 20 min before adding 1.0 μg/ml rmCIRP. After 4 h, TNF-α levels in CM were assayed by ELISA. Data are mean±s.e.m. from three independent experiments. *P<0.05 vs. rmCIRP+ control IgG. THP-1 cells were incubated with 4 μg/ml of anti-CIRP antibodies, anti-HMGB1 antibodies, or non-immunized control IgG for 1 h prior to adding rmCIRP (0.3 μg/ml), rmHMGB1 (0.3 μg/ml), or rmCIRP/rmHMGB1 (0.3 μg/ml, 0.3 μg/ml) for 8 h. *P<0.05 vs. rmCIRP; #P<0.05 vs. rmHMGB1. […] Furthermore, rmCIRP, rmHMGB1, and rmCIRP plus rmHMGB1 induced TNF-α levels of 0.8, 0.6, and 1.6 ng/ml, respectively. […] TNF-α levels in all collected CM were assayed by ELISA. Data are mean±s.e.m. from three or four independent experiments.
Murine macrophage-like RAW 264.7 cells and human monocyte THP-1 cells were obtained from ATCC (Manassas, Va.). […]

T4 sequence (O60603 21-590): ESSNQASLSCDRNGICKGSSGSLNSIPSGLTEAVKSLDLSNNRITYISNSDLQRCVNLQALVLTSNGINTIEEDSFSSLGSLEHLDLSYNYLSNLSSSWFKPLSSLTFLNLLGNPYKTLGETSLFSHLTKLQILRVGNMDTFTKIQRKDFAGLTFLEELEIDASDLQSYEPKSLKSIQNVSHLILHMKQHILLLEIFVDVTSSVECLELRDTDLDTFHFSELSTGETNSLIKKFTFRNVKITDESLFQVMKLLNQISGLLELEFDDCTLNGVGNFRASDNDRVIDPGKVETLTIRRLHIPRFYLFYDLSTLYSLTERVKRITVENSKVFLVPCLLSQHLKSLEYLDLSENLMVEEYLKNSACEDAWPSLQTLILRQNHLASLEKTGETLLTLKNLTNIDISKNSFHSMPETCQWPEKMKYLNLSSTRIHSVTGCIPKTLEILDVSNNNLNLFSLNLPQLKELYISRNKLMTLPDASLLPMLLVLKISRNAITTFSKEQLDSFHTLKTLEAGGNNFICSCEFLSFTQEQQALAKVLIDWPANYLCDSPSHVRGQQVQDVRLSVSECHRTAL
Chain of TLR4 (O00206 24-631 limits assumed, species assumed): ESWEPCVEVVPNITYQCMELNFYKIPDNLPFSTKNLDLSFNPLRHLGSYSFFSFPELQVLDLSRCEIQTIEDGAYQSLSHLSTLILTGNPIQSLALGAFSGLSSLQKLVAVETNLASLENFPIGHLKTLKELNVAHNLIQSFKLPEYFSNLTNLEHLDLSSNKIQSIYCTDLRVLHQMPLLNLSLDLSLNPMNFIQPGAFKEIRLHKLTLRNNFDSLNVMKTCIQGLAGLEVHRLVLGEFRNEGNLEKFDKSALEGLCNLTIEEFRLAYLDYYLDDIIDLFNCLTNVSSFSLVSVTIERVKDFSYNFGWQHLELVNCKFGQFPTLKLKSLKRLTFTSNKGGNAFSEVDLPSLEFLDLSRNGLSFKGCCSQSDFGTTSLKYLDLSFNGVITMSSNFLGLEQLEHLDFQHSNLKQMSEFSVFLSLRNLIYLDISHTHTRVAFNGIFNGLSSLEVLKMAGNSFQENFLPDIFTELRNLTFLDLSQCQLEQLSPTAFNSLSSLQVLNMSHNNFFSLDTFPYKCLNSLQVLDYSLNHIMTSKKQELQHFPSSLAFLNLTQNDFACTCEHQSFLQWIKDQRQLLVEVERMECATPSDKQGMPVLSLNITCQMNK
Chain of TLR4/MD2 complex (O00206 24-631 limits assumed, one chain of several): as the sequence (O00206 24-631 limits assumed, species assumed) above
T3 sequence (Q15109 23-344): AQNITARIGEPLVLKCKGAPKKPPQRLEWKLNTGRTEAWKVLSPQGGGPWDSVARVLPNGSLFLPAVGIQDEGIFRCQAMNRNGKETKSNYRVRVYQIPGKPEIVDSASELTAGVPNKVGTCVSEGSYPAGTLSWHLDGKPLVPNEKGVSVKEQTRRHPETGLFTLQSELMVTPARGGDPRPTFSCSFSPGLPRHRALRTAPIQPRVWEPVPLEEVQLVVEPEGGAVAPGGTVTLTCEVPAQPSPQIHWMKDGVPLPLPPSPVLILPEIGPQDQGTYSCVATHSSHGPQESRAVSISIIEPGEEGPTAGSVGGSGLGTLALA

As for “HMGB1: high mobility group box 1 protein, proinflammatory cytokine; literature binding data”, the Kd is 1500 nM with TLR4/MD2 complex and 8 nM with MD2. In addition, the “binding to TLR4 (in words)” value with TLR4 was “did not bind to TLR4”.

As for Polymyxin B, the “inhibition of LPS-induced TNF-α release” value in assay [1] is given as 84%. In addition, the “effect on rmCIRP-induced TNF-α production” value in assay [2] is “did not interfere”.

B1: rhCIRP: recombinant human CIRP, full length, C-terminal DDK tag, from HEK293 cells (Origene) (protein)
chain: MASDEGKLFVGGLSFDTNEQSLEQVFSKYGQISEVVVVKDRETQRSRGFGFVTFENIDDAKDAMMAMNGKSVDGRQIRVDQAGKSSDNRSRGYRGGSAGGRGFFRGGRGRGRGFSRGGGDRGYGGNRFESRSGGYGGSRDYYSSRSQSGGYSDRSSGGSYRDSYDSYATHNE
modifications: left off: small tags and cut ends
Consider B1, for which the Kd with rhMD2 came out at 302 nM. In the assay with RAGE, the “KD with RAGE” value is listed as “in the nM range”. The “KD with TLR2” value in the assay with TLR2 is “in the nM range”. For the same molecule, in the assay on THP-1 cells, the “activity in stimulating TNF-α release from differentiated THP-1 cells” value is “comparable activity to rmCIRP”.
